Test results as given in patent publication US20240035010, “COMPOSITIONS COMPRISING A VARIANT POLYPEPTIDE AND USES THEREOF” (Arbor Biotechnologies, Inc., published 2024).

Tests used:
[1] = target: T1, variant nuclease K35G combination (P14R, D32R, I61R, E311R, K35G); experiment: cell_activity; PAM 5'-TTTA-3'; details: tags: pcDNA3.1 expression
T1 chain: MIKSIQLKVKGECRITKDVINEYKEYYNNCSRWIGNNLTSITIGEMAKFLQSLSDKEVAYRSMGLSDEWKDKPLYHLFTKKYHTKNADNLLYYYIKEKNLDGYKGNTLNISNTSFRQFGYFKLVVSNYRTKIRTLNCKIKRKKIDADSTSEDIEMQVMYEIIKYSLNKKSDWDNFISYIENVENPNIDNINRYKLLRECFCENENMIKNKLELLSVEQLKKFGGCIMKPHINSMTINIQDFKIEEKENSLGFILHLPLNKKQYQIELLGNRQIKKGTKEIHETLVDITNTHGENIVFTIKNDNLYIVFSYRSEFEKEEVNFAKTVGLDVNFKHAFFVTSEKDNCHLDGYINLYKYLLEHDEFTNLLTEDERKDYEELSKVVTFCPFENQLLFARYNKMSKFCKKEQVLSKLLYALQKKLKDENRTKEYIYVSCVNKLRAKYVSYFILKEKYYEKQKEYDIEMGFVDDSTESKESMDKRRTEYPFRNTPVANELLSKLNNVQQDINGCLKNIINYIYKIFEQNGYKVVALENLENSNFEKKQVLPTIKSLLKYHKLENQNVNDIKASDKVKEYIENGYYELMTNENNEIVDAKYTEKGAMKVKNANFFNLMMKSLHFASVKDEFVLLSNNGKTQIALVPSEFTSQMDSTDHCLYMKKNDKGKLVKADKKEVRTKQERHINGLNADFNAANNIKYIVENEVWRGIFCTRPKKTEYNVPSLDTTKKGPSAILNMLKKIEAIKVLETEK
Procedure: (§1) Approximately 16 hours prior to transfection, 25,000 HEK293T cells in DMEM/10% FBS+Pen/Strep (D10 media) were plated into each well of a 96-well plate. On the day of transfection, the cells were 70-90% confluent. For each well to be transfected, a mixture of Lipofectamine 2000™ and Opti-MEM™ was prepared and incubated at room temperature for 5 minutes (Solution 1). After incubation, the Lipofectamine 2000™:Opti-MEM™ mixture was added to a separate mixture containing nuclease plasmid, RNA guide plasmid, and Opti-MEM™ (Solution 2). In the case of negative controls, the RNA guide plasmid was not included in Solution 2. Solutions 1 and 2 were mixed by pipetting up and down, then incubated at room temperature for 25 minutes. Following incubation, the Solution 1 and 2 mixture was added dropwise to each well of a 96-well plate containing the cells. Approximately 72 hours post transfection, cells were trypsinized by adding TrypLE™ to the center of each well and incubating at 37° C. for approximately 5 minutes. D10 media was then added to each well and mixed to resuspend cells. The resuspended cells were centrifuged at 500 g for 10 minutes to obtain a pellet, and the supernatant was discarded. The cell pellet was then resuspended in QuickExtract™ buffer (Lucigen®), and cells were incubated at 65° C. for 15 minutes, 68° C. for 15 minutes, and 98° C. for 10 minutes.
(§2) This Example describes assessment of indel activity at multiple target sites using the wild-type polypeptide of SEQ ID NO: 3 or variant polypeptides of Table 4. The variant polypeptides were cloned into a pcDNA3.1 backbone (Invitrogen), and the cells were transfected as described in Example 7.
(§3) The percentage of NGS reads containing indels (% indels) were calculated. For each variant polypeptide and target, % indels were averaged across two bioreplicates and two technical replicates. These values were then compared to % indels of the wild-type polypeptide of SEQ ID NO: 3.

[2] = target: T2, variant nuclease D55G/E736G combination (P14R, D32R, I61R, E311R, D55G, E736G); experiment: cell_activity; PAM 5'-TTTA-3'; details: tags: pcDNA3.1 expression
T2 chain: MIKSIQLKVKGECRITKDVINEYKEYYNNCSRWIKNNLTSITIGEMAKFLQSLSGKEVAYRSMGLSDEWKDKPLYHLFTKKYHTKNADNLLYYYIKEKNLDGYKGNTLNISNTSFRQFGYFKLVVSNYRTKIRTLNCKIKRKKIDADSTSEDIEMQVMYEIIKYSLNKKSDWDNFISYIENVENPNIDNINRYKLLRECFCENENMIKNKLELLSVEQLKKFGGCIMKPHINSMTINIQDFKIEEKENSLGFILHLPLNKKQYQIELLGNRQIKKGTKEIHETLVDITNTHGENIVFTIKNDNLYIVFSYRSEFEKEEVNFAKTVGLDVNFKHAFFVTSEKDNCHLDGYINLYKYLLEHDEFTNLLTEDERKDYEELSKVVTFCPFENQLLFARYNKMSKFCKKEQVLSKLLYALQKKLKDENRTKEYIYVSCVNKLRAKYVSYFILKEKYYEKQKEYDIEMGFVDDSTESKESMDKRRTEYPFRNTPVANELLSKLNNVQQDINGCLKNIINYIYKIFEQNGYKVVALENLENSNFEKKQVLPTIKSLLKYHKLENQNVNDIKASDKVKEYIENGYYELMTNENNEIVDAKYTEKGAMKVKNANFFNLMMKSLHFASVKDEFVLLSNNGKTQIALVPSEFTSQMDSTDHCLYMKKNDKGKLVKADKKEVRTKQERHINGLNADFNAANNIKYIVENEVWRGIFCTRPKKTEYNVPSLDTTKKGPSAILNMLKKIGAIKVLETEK
Procedure: as §1, §2, §3

B1: VEGFA crRNA ; VEGFA target (ssRNA ; dsDNA)
RNA: CUUGUUGUAUAUGUCCUUUUAUAGGUAUUAAACAACUCCAGACCACCAAUGGGCAC
DNA 1: TCCAGACCACCAATGGGCAC
DNA 2: GTGCCCATTGGTGGTCTGGA
- indel activity [1]: 2.69 fold of WT
- indel activity [2]: 3.06 fold of WT
